This passage reports mean mCherry intensity in locally activated droplets relative to nucleoplasm and mCherry fluorescence results from patent US20200095569A1.

Assay [1] deals with NLS-iLID-GFP-ferritin (Gallus gallus; human) (UniProt P02794). Kind of assay: cell-based or functional assay.
For assay [2], the target named is NLS-iLID-iLID-GFP-ferritin (Gallus gallus; human) (UniProt P02794). Kind of assay: cell-based or functional assay.

“FUS(1-214)-mCherry-sspB (from UniProt P0AFZ3 6-116)” registered a mean mCherry intensity in locally activated droplets relative to nucleoplasm in assay [1] of 100 fold. In addition, in assay [2], the mCherry fluorescence at core based droplets after light activation (live cell confocal imaging) was 15 s.
